Assay results from US20060177432A1 (Novartis, published 2006).

Experiments:
chymotrypsin = experiment: chromogenic substrate hydrolysis at varied substrate and PEBP-H6 concentrations, fitted to the equation for a competitive inhibitor
Experimental: (§1) Six different serine proteases were diluted in enzyme buffer (67 mM Tris, pH 8.0, 133 mM NaCl, 0.13% PEG-6000) and used in protease activity assays with the following final amounts: thrombin, trypsin and chymotrypsin, 0.005 pmol; t-PA and neuropsin, 0.5 pmol; and pancreatic elastase, 4 pmol. Human α-thrombin was prepared and according to Stone et al. (Stone, S. R. and Hofsteenge, J. (1986) Biochemistry 25, 46224628); all other proteases are commercially available (e.g., Sigma, Fluka). […] The pre-incubation was carried out in a 96-well plate for 30 min at 37° C. After addition of 10 μl chromogenic protease substrate (H-D-Ile-Pro-Arg-para-nitroanilide, Chromogenix, 1.25 mg/ml in H₂O for all proteases other than chymotrypsin; or N-Succinyl-Ala-Ala-Pro-Phe-para-nitroanilide, Sigma, 2.3 mg/ml in H₂O for chymotrypsin), any remaining amidolytic activity was determined by measuring the rate of hydrolysis of the chromogenic substrate at 405 nm over 30 min using a THERMOmax microplate reader (Molecular Devices). […]
(§2) To determine the inhibition constants, the rates for the hydrolysis of the chromogenic substrates were measured as described above at fixed enzyme concentrations and substrate concentrations ranging from 3.5 μM to 216 μM and PEBP-H6 concentrations between 0 and 2.9 μM. […]

human α-thrombin = human α-thrombin (human, UniProt P00734 328-622); experiment: as above
Experimental: as §1, §2

Ki (chymotrypsin): 1800 nM | Ki (human α-thrombin): 380 nM
B1: PEBP-H6 (mouse PEBP with a stretch of six histidine residues fused to the carboxy-terminus) (other)
chain: AADISQWAGPLCLQEVDEPPQHALRVDYAGVTVDELGKVLTPTQVMNRPSSISWDGLDPGKLYTLVLTDPDAPSRKDPKFREWHHFLVVNMKGNDISSGTVLSDYVGSGPPSGTGLHRYVWLVYEQEQPLSCDEPILSNKSGDNRGKFKVETFRKKYNLGAPVAGTCYQAEWDDYVPKLYEQLSGKHHHHHH
notes: Expressed in Rat-1 cells and purified on Ni-NTA
